B1: recombinant ClpP1 (rClpP1) of Leptospira interrogans, LIC11417 (enzyme)
chain: not shown
B2: recombinant ClpP2 (rClpP2) of Leptospira interrogans, LIC11951 (enzyme, UniProt Q72R01 1-197, looked up)
chain: MPETEKIAEVFEELTGSKISKNFLDHRKIFLWGPVTDESSKDLVGKLLYLEMKDPGKKITFYINSPGGVVTSGMTVFDTIKMISSPVHTVCMGMAASMGSVLLAAGTKGERSIWPNGKVMIHQPSIGGQIVAPATDLKIHAEEILKTKTKLNQILADACGHPISKLEEDTDRDYYMDAEEAIKYGIVDKLATKIDFN

Experiments:
[1] = target: B2; test: ITC
SEC = target: the molecule itself; test: SEC
native gel or EMSA = target: the molecule itself; test: native gel or EMSA
cross-linking = target: the molecule itself; test: cross-linking
[2] = target: B1; test: ITC

| Binder | dH [1] | stoichiometry N [1] | stoichiometry N (SEC) | stoichiometry N (native gel or EMSA) | stoichiometry N (cross-linking) | binding result (native gel or EMSA) | Kd [2] |
| --- | --- | --- | --- | --- | --- | --- | --- |
| B1 | -30200 ± 2640 cal^–1 mol^–1 | 0.945 ± 0.05 | 14 | 21 | 7 | – | – |
| rClpP1S98A, catalytic serine mutant of recombinant ClpP1 of Leptospira interrogans (enzyme) not shown | – | – | – | – | – | binds | – |
| B2 | – | – | – | 14 | 7 | – | 2.02 ± 0.1 µM |
| rClpP2S97A, catalytic serine mutant of recombinant ClpP2 of Leptospira interrogans (enzyme, UniProt Q72R01 1-197, looked up) MPETEKIAEVFEELTGSKISKNFLDHRKIFLWGPVTDESSKDLVGKLLYLEMKDPGKKITFYINSPGGVVTSGMTVFDTIKMISSPVHTVCMGMAAAMGSVLLAAGTKGERSIWPNGKVMIHQPSIGGQIVAPATDLKIHAEEILKTKTKLNQILADACGHPISKLEEDTDRDYYMDAEEAIKYGIVDKLATKIDFN | – | – | – | – | – | binds | – |
